In PMC11237755:

What was measured:
Conditions in all cases: LightShift Chemiluminescent EMSA kit (binding buffer, salt and pH not given), 20 min room temperature; 20 fmol probe, 6% 0.5x TBE gel (TtdV/TtdW); 50 fmol …
[1] = tested on: T1, His6-ArcA (unphosphorylated) (Salmonella enterica serovar Typhimurium IR715 (ATCC14028 NalR)), ORF:c309dbee; assay: EMSA
T1 sequence: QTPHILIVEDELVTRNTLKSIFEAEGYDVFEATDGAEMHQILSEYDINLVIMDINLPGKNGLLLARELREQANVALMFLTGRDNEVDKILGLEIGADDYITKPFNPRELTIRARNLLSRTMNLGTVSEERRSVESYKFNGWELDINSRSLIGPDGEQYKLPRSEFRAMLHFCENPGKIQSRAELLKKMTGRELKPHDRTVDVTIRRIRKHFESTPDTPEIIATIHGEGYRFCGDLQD

[2] = tested on: T2, His6-ArcA~P (Salmonella enterica serovar Typhimurium IR715 (ATCC14028 NalR)), ORF:c309dbee; assay: EMSA
T2 sequence: T1 sequence

[3] = target: T3, TtdV-His6 (Salmonella enterica serovar Typhimurium IR715 (ATCC14028 NalR)) (UniProt Q8ZLP8); assay: EMSA
T3 sequence: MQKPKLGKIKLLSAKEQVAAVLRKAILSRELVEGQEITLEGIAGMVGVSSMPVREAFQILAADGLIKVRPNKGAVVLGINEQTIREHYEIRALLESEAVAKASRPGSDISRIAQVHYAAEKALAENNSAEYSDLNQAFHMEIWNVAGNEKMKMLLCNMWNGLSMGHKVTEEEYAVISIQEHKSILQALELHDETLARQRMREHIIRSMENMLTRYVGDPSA

[4] = tested on: T2, His6-ArcA~P (Salmonella enterica serovar Typhimurium IR715 (ATCC14028 NalR)), ORF:c309dbee; assay: competition
[5] = target: T4, TtdW-His6 (Salmonella enterica serovar Typhimurium IR715 (ATCC14028 NalR)) (UniProt Q8ZLP7); assay: competition
T4 sequence: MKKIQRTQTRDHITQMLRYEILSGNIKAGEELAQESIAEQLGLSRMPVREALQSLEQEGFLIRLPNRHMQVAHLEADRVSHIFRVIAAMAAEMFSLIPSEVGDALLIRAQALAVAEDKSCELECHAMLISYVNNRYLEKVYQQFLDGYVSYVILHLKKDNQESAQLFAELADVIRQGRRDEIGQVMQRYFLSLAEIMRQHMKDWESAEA

[6] = target: T4, TtdW-His6 (Salmonella enterica serovar Typhimurium IR715 (ATCC14028 NalR)); assay: EMSA

Sequence	binding [1]	binding [2]	binding [3]	binding [4]	binding [5]	binding [6]
ACCGAAGAAGAGTATGCCGTGATTTCCATTCAGGAACATAAAAGTATTCTGCAAGCTCTTGAACTTCATGATGAAACATTGGCACGCCAGCGCATGCGCGAACACATTATTCGCTCAATGGAGAATATGCTGACCCGCTATGTTGGTGACCCTTCTGCCTGATCTTTTCGCCTGCGTGAGCATCGCAGGCGCTTCAACCAATTCTTCAATTCTATTAATCACGTCCAGTAACGATCTAACCACGATCTTGATGTAGC (double strand) [Probe 3]	binds	binds	no binding	–	–	–
CCTAACTCGGCGGAATACTCCGACCTGAATCAGGCATTTCATATGGAAATATGGAATGTTGCTGGCAACGAAAAAATGAAAATGTTGCTCTGTAATATGTGGAACGGCCTGTCGATGGGCCATAAGGTCACCGAAGAAGAGTATGCCGTGATTTCCATTCAGGAACATAAAAGTATTCTGCAAGCTCTTGAACTTCATGATGAAACATTGGCACGCCAGCGCATGCGCGAACACATTATTCGCTCAATGGAGAATATGCTGACCCGCTATGTTG (double strand) [Probe 2]	binds	binds	no binding	–	–	–
CGTATGCTGACCCGCTATGTTGGTGACCCTTCTGCCTGATCTTTTCGCCTGCGTGAGCATCGCAGGCGCTTCAACCAATTCTTCAATTCTATTAATCACGTCCAGTAACGATCTAACCACGATCTTGATGTAGATCCCACTCCTGCATCTTTCCTGAGAAACGATTTGACTTAGTTTTTGTATGGGAATAATTTCTCCCTGTCAACATTGGATACAATATCATATATCATTGATTGGATAATTATAAATATGGAACCCATTACCCTTACCTTATGTTTATTGGTGTTCGCCC (double strand) [Probe 4 unlabeled competitor]	–	–	–	binds	binds	–
CGTATGCTGACCCGCTATGTTGGTGACCCTTCTGCCTGATCTTTTCGCCTGCGTGAGCATCGCAGGCGCTTCAACCAATTCTTCAATTCTATTAATCACGTCCAGTAACGATCTAACCACGATCTTGATGTAGATCCCACTCCTGCATCTTTCCTGAGAAACGATTTGACTTAGTTTTTGTATGGGAATAATTTCTCCCTGTCAACATTGGATACAATATCATATATCATTGATTGGATAATTATAAATATGGAACCCATTACCCTTACCTTATGTTTATTGGTGTTCGCCC (double strand) [Probe 4]	binds	binds	–	–	–	binds
GCCTTCTTCGGTGACCTTATGGCCCATCGACAGGCCGTTCCACATATTACAGAGCAACATTTTCATTTTTTCGTTGCCAGCAACATTCCATATTTCCATATGAAATGCCTGATTCAGGTCGGAGTATTCCGCCGAGTTATTTTCCGCGAGAGCCTTTTCAGCGGCATAATGCACCTGGGCTATCCGCGAGATATCGGAGCCAGGACGAGAAGCTTTAGCCACCGCCTCACTTTCTAACAGCGCGCGAATTTCATAGTGTTCACGGATGG (double strand) [Probe 1]	binds	binds	no binding	–	–	–
